This is an account of results in patent US20240301086A1 (APTEVO RESEARCH AND DEVELOPMENT, published 2024).

In experiment [1] the target is T1, Full-length cynomolgus monkey PSMA (TSC308), on cells (cynomolgus monkey, UniProt Q04609 1-750 (human entry)).
T1 construct: also called cyno PSMA; CHOK1SV/cynoPSMA
T1 chain: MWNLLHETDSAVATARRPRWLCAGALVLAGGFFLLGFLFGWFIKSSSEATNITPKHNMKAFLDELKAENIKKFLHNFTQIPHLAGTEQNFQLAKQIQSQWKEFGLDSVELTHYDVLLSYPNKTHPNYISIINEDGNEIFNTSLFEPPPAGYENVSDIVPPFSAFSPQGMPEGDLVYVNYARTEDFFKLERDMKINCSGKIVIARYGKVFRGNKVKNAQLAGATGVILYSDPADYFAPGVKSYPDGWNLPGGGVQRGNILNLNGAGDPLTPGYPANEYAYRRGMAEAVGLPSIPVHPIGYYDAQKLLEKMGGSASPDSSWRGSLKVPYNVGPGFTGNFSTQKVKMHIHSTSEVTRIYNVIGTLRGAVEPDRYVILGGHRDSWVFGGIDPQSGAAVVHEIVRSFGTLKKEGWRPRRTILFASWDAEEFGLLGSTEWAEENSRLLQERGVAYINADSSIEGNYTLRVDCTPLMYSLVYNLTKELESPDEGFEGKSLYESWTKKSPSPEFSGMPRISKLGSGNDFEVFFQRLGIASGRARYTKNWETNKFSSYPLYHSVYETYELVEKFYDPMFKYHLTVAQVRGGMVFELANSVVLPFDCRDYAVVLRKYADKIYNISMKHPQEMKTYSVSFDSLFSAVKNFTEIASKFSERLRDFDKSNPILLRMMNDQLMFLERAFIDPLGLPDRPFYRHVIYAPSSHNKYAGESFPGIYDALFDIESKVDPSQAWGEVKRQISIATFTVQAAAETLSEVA
Briefly: flow cytometry on CHO-CynoPSMA cells, Median (PE); drawn table row 'Cyno PSMA binding affinity'.

Experiment [2] addresses human Fcγ receptor IIIB (human, UniProt O75015 17-200). The experiment is described as follows: SPR (Biacore T200), construct amine-coupled, Fcγ receptor as analyte. The protocol:
(§1) The Fc region incorporated into anti-PSMA bispecific constructs contained mutations intended to reduce or abolish binding to common human and cynomolgus Fc gamma receptors. SPR experiments were conducted at 25° C. in HBS-EP+ with 0.2% BSA buffer on a Biacore T200 system to evaluate the impact of these mutations on binding. For these experiments, three flow cells of a CM5 sensor chip were immobilized with anti-PSMA bispecifics by standard amine coupling to a response level of ˜2000 RU. A blank immobilization was performed on flow cell #1 for purposes of background signal subtraction. Both human and cynomolgus monkey Fcγ receptors (purchased from R&D Systems) were diluted in HBS-EP+ with 0.2% BSA to 4-6 μM and then flowed as analytes at 30 μL/min for 120 seconds followed by a 240 second dissociation step. No regeneration step was required. Blank-subtracted sensorgrams were visually inspected for binding to each of the Fcγ receptor proteins. […] Attenuated binding to Fcγ receptors IIA (both polymorphic variants) and IIB/C was observed. PSMA01107 and PSMA01108 share the same Fc amino acid sequence and therefore equivalent Fcγ receptor binding behavior was expected.
On the technique in general: Surface plasmon resonance follows binding to a sensor surface in real time, without labels.

Experiment [3] has as its target human Fcγ receptor IIIA, V176 variant (human, UniProt P08637 17-208). Described as above. The protocol:
as §1

The target in experiment [4] is human Fcγ receptor IIIA, F176 variant (human, UniProt P08637 17-208). The experiment is described as above. The protocol: as §1
human Fcγ receptor IIIA, F176 variant, sequence (P08637 17-208, change not shown): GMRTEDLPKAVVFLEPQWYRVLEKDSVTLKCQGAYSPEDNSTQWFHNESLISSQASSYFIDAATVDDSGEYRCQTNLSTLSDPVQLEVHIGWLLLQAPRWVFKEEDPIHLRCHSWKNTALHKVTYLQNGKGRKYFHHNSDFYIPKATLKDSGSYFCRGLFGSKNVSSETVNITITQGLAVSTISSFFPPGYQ
The target of experiment [5] is human Fcγ receptor I (human, UniProt P12314 16-288). The experiment is described as above. The protocol:
as §1

The target in experiment [6] is T2, Full-length Human PSMA (TSC435), on cells (human, UniProt Q04609 1-750).
T2 construct: also called CHOK1SV/huPSMA; PSMA on C4-2B, 22RV1, LNCaP, MDA-PCa-2b cells
Briefly: flow cytometry on C4-2B cells, PE goat anti-human IgG Fc secondary, MFI (median). The method, then: (§2) Constructs were initially tested in CD3ε and PSMA binding assays on Jurkat and C4-2B cells. Cells were labelled at approximately 100,000 cells per well, in 96-well plates, with serial dilutions of bispecific constructs ranging in concentration from of 0.1 to 300 nM, for 30 min on ice. Primary label was followed by washes and incubation with PE-labeled minimum cross species reactive secondary antibody, goat anti-human IgG Fcγ, F(ab′)2 (Jackson Laboratory) for 30 minutes on ice. Washes and incubation were done in staining buffer (PBS with 0.2% BSA and 2 mM EDTA). Cells were collected using an BD™ LSRII or a BD FACSymphony™ flow cytometer (BD Biosciences) and analyzed by FlowJo flow cytometry analysis software. Median fluorescence intensity (MFI) of bound molecules on cells was determined after exclusion of doublets. Results were plotted and nonlinear regression analysis to determine EC50 values was performed using GraphPad Prism 7© graphing and statistics software.

For experiment [7], the target named is T3, human CD3ε in the TCR/CD3 complex on Jurkat cells (human, UniProt P07766 23-207).
T3 construct: whole, on cells; On the cells it stands in the whole TCR/CD3 complex; also called CD3 (+) cells; CD3-expressing Jurkat cells
T3 sequence (P07766 23-207, one chain of several): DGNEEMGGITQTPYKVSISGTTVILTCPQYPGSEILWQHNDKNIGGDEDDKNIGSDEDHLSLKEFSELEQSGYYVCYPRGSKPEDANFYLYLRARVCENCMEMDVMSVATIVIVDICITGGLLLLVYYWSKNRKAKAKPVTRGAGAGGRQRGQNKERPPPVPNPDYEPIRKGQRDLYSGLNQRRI
Briefly: flow cytometry, drawn table 'On- Cell Binding Parameters', row 'Human CD3 binding affinity'. The method, then:
as §2
For orientation: In flow cytometry, cells or beads pass a laser one at a time.

The target of experiment [8] is T2, Full-length Human PSMA (TSC435), on …. Briefly: flow cytometry on C4-2B cells, PE goat anti-human IgG Fc secondary, MFI (median). The protocol: as §2
This is another data set of the same source.

Experiment [9] has as its target T3, human CD3ε in the TCR/CD3 complex on …. The experiment is described as follows: flow cytometry on Jurkat cells, PE goat anti-human IgG Fc secondary, MFI (median). The method, then:
as §2

The target is the same in experiment [10]. The description is as above. The method, then: as §2
The source holds these as a separate data set.

For experiment [11], the target named is T4, cynomolgus Fcγ receptor III (cynomolgus monkey, UniProt Q8SPW2 17-208).
T4 construct: Called recombinant, soluble; also called Cyno RIII
T4 sequence (Q8SPW2 17-208): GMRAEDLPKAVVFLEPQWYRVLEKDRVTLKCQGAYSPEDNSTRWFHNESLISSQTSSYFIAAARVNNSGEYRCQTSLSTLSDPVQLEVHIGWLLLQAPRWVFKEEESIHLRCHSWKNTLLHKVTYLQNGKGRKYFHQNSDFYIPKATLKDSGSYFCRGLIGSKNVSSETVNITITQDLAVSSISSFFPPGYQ
Briefly: SPR (Biacore T200), construct amine-coupled, soluble cyno Fcγ receptor as analyte. The protocol: as §1

In experiment [12] the target is T2, Full-length Human PSMA (TSC435), on …. The experiment is described as follows: flow cytometry, drawn table 'On- Cell Binding Parameters', row 'Human PSMA binding affinity'.

human Fcγ receptor IIIB, sequence (O75015 17-200): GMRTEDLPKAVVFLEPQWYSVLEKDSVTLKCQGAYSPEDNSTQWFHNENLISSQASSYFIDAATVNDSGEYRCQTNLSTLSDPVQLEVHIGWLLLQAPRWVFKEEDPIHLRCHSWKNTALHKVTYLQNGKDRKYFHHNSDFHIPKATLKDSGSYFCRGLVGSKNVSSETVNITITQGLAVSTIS
human Fcγ receptor IIIA, V176 variant, sequence (P08637 other isoform, or with tags, fused parts or gaps mutant): as the sequence (P08637 17-208, change not shown) above, with F160V counted along it
human Fcγ receptor I, sequence (P12314 16-288): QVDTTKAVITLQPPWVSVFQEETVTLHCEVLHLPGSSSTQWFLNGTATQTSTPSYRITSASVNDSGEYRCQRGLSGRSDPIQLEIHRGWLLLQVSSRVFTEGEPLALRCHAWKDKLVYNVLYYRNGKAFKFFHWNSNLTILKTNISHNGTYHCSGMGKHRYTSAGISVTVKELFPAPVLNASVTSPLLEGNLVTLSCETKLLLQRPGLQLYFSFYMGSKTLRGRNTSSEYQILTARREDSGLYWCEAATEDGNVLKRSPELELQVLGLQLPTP

B1: TSC266 Anti PSMA scFv x Anti CD3 scFv ADAPTIR (bispecific antibody)
chain: DIQMTQSPSAMSASVGDRVTITCRASKSISKYLAWFQQKPGKVPKLRIHSGSTLQSGVPSRFSGSGSGTEFTLTISSLQPEDFATYYCQQHIEYPWTFGQGTKVEIKRGGGGSGGGGSGGGGSQVQLVQSGAEVKKPGASVKVSCKASGYTFTDYYMHWVRQAPGQGLEWMGYFNPYNDYTRYAQKFQGRVTMTRDTSISTAYMELSSLRSDDTAVYYCARSDGYYDAMDYWGQGTTVTVSSSEPKSSDKTHTCPPCPAPEAAGAPSVFLFPPKPKDTLMISRTPEVTCVVVDVSHEDPEVKFNWYVDGVEVHNAKTKPREEQYNSTYRVVSVLTVLHQDWLNGKAYACAVSNKALPAPIEKTISKAKGQPREPQVYTLPPSRDELTKNQVSLTCLVKGFYPSDIAVEWESNGQPENNYKTTPPVLDSDGSFFLYSKLTVDKSRWQQGNVFSCSVMHEALHNHYTQKSLSLSPGQRHNNSSLNTGTQMAGHSPNSQVQLVESGGGVVQPGRSLRLSCKASGYTFTRSTMHWVRQAPGQGLEWIGYINPSSAYTNYNQKFKDRFTISADKSKSTAFLQMDSLRPEDTGVYFCARPQVHYDYNGFPYWGQGTPVTVSSGGGGSGGGGSGGGGSAQDIQMTQSPSSLSASVGDRVTMTCSASSSVSYMNWYQQKPGKAPKRWIYDSSKLASGVPARFSGSGSGTDYTLTISSLQPEDFATYYCQQWSRNPPTFGGGTKLQITSSS
notes: The anti-PSMA domain is that of PSMA01012 and the anti-CD3 domain is DRA222; also called unoptimized parent construct; TSC266 control (PSMA × CD3 bispecific protein)
Broadly, the EC50 is the concentration giving half of the maximal effect. With B1, the EC50 in experiment [1] was 20 nM; in [6], 7 nM; in experiment [7], 2 nM; in [8] it was 7 nM; in experiment [9] it was 2 nM; in [10] it was 2 nM. For the same molecule, it took 10 nM to reach a half-maximal effect in experiment [12] (EC50). Besides, the Max in experiment [1] was determined as 6000; in experiment [7], 15000; in experiment [12], 1400. For the same molecule, the binding result in experiment [2], in [3], in [4], in experiment [5] and in experiment [11] was “no binding (tested: 4-6 µM)” each time.
